Test results taken from PMC2953525, “Subtle Alterations in PCNA-Partner Interactions Severely Impair DNA Replication and Repair” (PLoS Biology, 2010).

Legend:
Rad30 PIP peptide = assay: SPR analysis of PCNA binding to PIP peptide; parameters: species or system yeast
From the text: (§1) To quantify differences in binding affinities of the PCNA mutants relative to the WT, we characterized four PCNA mutants with increased affinity for PIP peptides derived from Rad30, Pol32, Msh6, and Ung1 partners using SPR. These mutants were overexpressed in E. coli, purified by affinity chromatography, and immobilized on an SPR sensor chip for binding characterization. SPR binding analysis enabled direct and sensitive measurement of interaction affinities relative to the Y2H system and indicated an up to 8-fold increase in binding affinity for the different PIP peptides, relative to WT PCNA (Table 1). Such analysis allowed the detection of a significant decrease in the Rad30 PIP peptide dissociation rate in the Pol30-Rad30E9p mutant relative to the WT, indicating a ∼9-fold increase in the lifetime of the PCNA-Rad30 complex (see Table 1). Collectively the ELISA, Y2H, and SPR assays validated and quantified the increase in mutant PCNA binding affinities, relative to WT PCNA.
(§2) Protein interaction assays were carried out using the ProteOn XPR36 (Bio-Rad) instrument. WT or PCNA mutants (0.4 to 5.2 fmol) were immobilized on the surface of a GLM sensor chip by a carbodiimide-activated succinimide-coupling method, as specified by the manufacturer. All SPR experiments were performed by flowing 150 µl of the target peptide at a flow rate of 30 µl/min onto the PCNA-bound chip. Different concentrations (5–5,000 nM) of PIP peptides (Table 1) were injected over the PCNA chip, and binding parameters were determined using ProteOn XPR36 software (Bio-Rad). The ligand (PCNA) and analyte (peptide) buffers were PBST and 150 mM NaCl, 1 mM EDTA, 0.01% Tween-80, 30 mM Hepes, pH 7.5, respectively.

Pol32 PIP peptide = assay: SPR analysis of PCNA binding to PIP peptide; parameters: species or system yeast; conditions: peptide 5-5,000 nM
From the text: as §1, §2

Msh6 PIP peptide = assay: SPR analysis of PCNA binding to PIP peptide; parameters: species or system yeast; conditions: peptide 5-5,000 nM
From the text: as §1, §2

yeast strains = assay: Growth sensitivity of PCNA mutant strains to MMS and HU; assay type: cell-based; conditions: for effect of overexpression of Rad27, Rad30, Pol32, and Msh6 on growth sensitivity to DNA damaging agents: Figure S9, GAL1/10 inducible GST-tagged partners; for effect of rad30 deletion on strain growth sensitivity phenotype: Figure 6B; for effect of rad27 deletion on growth sensitivity of the mutant strain: Figure S8, parent vs rad27-deleted strains
From the text: Next, we examined the sensitivity of strains containing single deletions of each of the five different partners on a WT PCNA background. […] We first examined whether the rad27 deletion can suppress the lethality of a strain containing the pol30-Rad27L1 or pol30-Rad27L2 mutants (Figure 6A). […] In addition, we examined whether rad30 deletion, ung1 deletion, and msh6 deletion can suppress the phenotypes of the pol30 mutants with increased affinity to Rad30, Ung1, and Msh6, respectively (Figure 6B–D). […] However, since the suppression of the strain phenotypes was not complete, additional factors, such as minor effects of the mutations on other PCNA-partner interactions, may play a partial role in the sensitivity phenotype of the examined pol30 mutants. […] We also examined whether overexpression of different partners can suppress the growth sensitivity of the pol30 mutants, however no suppression was observed (Figure S9).
Novel haploids containing PCNA mutants were generated using the plasmid shuffling method. Briefly, a pol30::KanMX magic marker heterozygote diploid strain BY4743 (Open Biosystem) was transformed with plasmid pRS316-POL30. Following dissection of the diploid, a haploid containing the CAN+ gene and plasmid pRS316-POL30 as a sole source of PCNA was generated. This host strain was transformed with selected pRS315-pol30 mutants, plated on SC-Ura-Leu plates, followed by replica plating to SC-Leu+5FOA plates. Haploids, containing PCNA mutants as a sole source, were further verified by plating on either SC-Leu or SC-Ura plates. For testing selected PCNA mutants, a haploid containing rad27::HYG, rad30::HYG, pol32::HYG, msh6::HYG, or ung1::HYG were generated using plasmid pAG32 by conventional genetic approaches. Growth of the PCNA mutant strains in the presence of 120 mM HU (Toronto Research Chemicals) or 0.02% MMS (Sigma) was performed as described. To examine the effects of partner overexpression on pol30 mutant strains, these strains were transformed with various plasmids containing GST-tagged PCNA partner encoding genes under the control of a GAL1/10 inducible promoter, as previously described. Overnight cultures were plated in serial dilutions on SC-Ura containing either glucose or galactose with or without DNA-damaging agents, as described above.

[1] = footnote d, PCNA immobilized on GLM chip

POL30: wild-type yeast PCNA (POL30), IDCL sequence DIDADFLKIEEL
Kd (Rad30 PIP peptide; PCNA immobilized, peptide 5-5,000 nM, ProteOn XPR36, read-out: Binding affinity for Rad30 PIP peptide (SPR)): 170 nM | off-rate (kd) of the Rad30 PIP peptide (Rad30 PIP peptide; SPR): 0.03 s⁻¹ | Kd (Pol32 PIP peptide; PCNA immobilized, ProteOn XPR36, read-out: Binding affinity for Pol32 PIP peptide (SPR)): 360 nM | Kd (Msh6 PIP peptide; PCNA immobilized, ProteOn XPR36, read-out: Binding affinity for Msh6 PIP peptide (SPR)): 3000 nM | effect of overexpression of Rad27, Rad30, Pol32, and Msh6 on growth sensitivity to DNA damaging agents (yeast strains): did not reduce the growth sensitivity

B1: pol30-Msh6E6: PCNA mutant evolved for Msh6, IDCL sequence DYDKDLLKIIEL (protein)
chain: MLEAKFEEASLFKRIIDGFKDCVQLVNFQCKEDGIIAQAVDDSRVLLVSLEIGVEAFQEYRCDHPVTLGMDLTSLSKILRCGNNTDTLTLIADNTPDSIILLFEDTKKDRIAEYSLKLMDYDKDLLKIIELQYDSTLSLPSSEFSKIVRDLSQLSDSINIMITKETIKFVADGDIGSGSVIIKPFVDMEHPETSIKLEMDQPVDLTFGAKYLLDIIKGSSLSDRVGIRLSSEAPALFQFDLKSGFLQFFLAPKFNDEE
modifications: left off: Gal4 activation domain, end not stated, kept
Fold increase in binding affinity for Msh6 PIP peptide relative to WT PCNA (SPR) (Msh6 PIP peptide; [1]): 1.6 fold

B2: pol30-79: previously studied PCNA mutant with decreased partner binding, IDCL sequence DIDADFAKAEEL (protein)
chain: MLEAKFEEASLFKRIIDGFKDCVQLVNFQCKEDGIIAQAVDDSRVLLVSLEIGVEAFQEYRCDHPVTLGMDLTSLSKILRCGNNTDTLTLIADNTPDSIILLFEDTKKDRIAEYSLKLMDIDADFAKAEELQYDSTLSLPSSEFSKIVRDLSQLSDSINIMITKETIKFVADGDIGSGSVIIKPFVDMEHPETSIKLEMDQPVDLTFGAKYLLDIIKGSSLSDRVGIRLSSEAPALFQFDLKSGFLQFFLAPKFNDEE
modifications: left off: Gal4 activation domain, end not stated, kept
effect of overexpression of Rad27, Rad30, Pol32, and Msh6 on growth sensitivity to DNA damaging agents (yeast strains): did not reduce the growth sensitivity

B3: pol30-Rad30E2: PCNA mutant evolved for Rad30, IDCL sequence DDDWDFLKILEL (protein)
chain: MLEAKFEEASLFKRIIDGFKDCVQLVNFQCKEDGIIAQAVDDSRVLLVSLEIGVEAFQEYRCDHPVTLGMDLTSLSKILRCGNNTDTLTLIADNTPDSIILLFEDTKKDRIAEYSLKLMDDDWDFLKILELQYDSTLSLPSSEFSKIVRDLSQLSDSINIMITKETIKFVADGDIGSGSVIIKPFVDMEHPETSIKLEMDQPVDLTFGAKYLLDIIKGSSLSDRVGIRLSSEAPALFQFDLKSGFLQFFLAPKFNDEE
modifications: left off: Gal4 activation domain, end not stated, kept
effect of rad30 deletion on strain growth sensitivity phenotype (yeast strains): suppression | effect of rad27 deletion on growth sensitivity of the mutant strain (yeast strains): suppression of the growth sensitivity

B4: pol30-Pol32E9 (protein)
chain: MLEAKFEEASLFKRIIDGFKDCVQLVNFQCKEDGIIAQAVDDSRVLLVSLEIGVEAFQEYRCDHPVTLGMDLTSLSKILRCGNNTDTLTLIADNTPDSIILLFEDTKKDRIAEYSLKLMDNDVDSLKIIELQYDSTLSLPSSEFSKIVRDLSQLSDSINIMITKETIKFVADGDIGSGSVIIKPFVDMEHPETSIKLEMDQPVDLTFGAKYLLDIIKGSSLSDRVGIRLSSEAPALFQFDLKSGFLQFFLAPKFNDEE
modifications: left off: Gal4 activation domain, end not stated, kept
Fold increase in binding affinity for Pol32 PIP peptide relative to WT PCNA (SPR) (Pol32 PIP peptide; [1]): 2 fold

B5: pol30-Rad27E6: PCNA mutant evolved for Rad27, IDCL sequence DGDYDILKIREL (protein)
chain: MLEAKFEEASLFKRIIDGFKDCVQLVNFQCKEDGIIAQAVDDSRVLLVSLEIGVEAFQEYRCDHPVTLGMDLTSLSKILRCGNNTDTLTLIADNTPDSIILLFEDTKKDRIAEYSLKLMDGDYDILKIRELQYDSTLSLPSSEFSKIVRDLSQLSDSINIMITKETIKFVADGDIGSGSVIIKPFVDMEHPETSIKLEMDQPVDLTFGAKYLLDIIKGSSLSDRVGIRLSSEAPALFQFDLKSGFLQFFLAPKFNDEE
modifications: left off: Gal4 activation domain, end not stated, kept
effect of rad27 deletion on growth sensitivity of the mutant strain (yeast strains): only weak effect | effect of overexpression of Rad27, Rad30, Pol32, and Msh6 on growth sensitivity to DNA damaging agents (yeast strains): did not reduce the growth sensitivity

B6: pol30-Pol32E5: PCNA mutant evolved for Pol32, IDCL sequence DADNDFLKISEL (protein)
chain: MLEAKFEEASLFKRIIDGFKDCVQLVNFQCKEDGIIAQAVDDSRVLLVSLEIGVEAFQEYRCDHPVTLGMDLTSLSKILRCGNNTDTLTLIADNTPDSIILLFEDTKKDRIAEYSLKLMDADNDFLKISELQYDSTLSLPSSEFSKIVRDLSQLSDSINIMITKETIKFVADGDIGSGSVIIKPFVDMEHPETSIKLEMDQPVDLTFGAKYLLDIIKGSSLSDRVGIRLSSEAPALFQFDLKSGFLQFFLAPKFNDEE
modifications: left off: Gal4 activation domain, end not stated, kept
effect of overexpression of Rad27, Rad30, Pol32, and Msh6 on growth sensitivity to DNA damaging agents (yeast strains): did not reduce the growth sensitivity

B7: pol30-Msh6E2: PCNA mutant evolved for Msh6, IDCL sequence DYDRDMLKISEL (protein)
chain: MLEAKFEEASLFKRIIDGFKDCVQLVNFQCKEDGIIAQAVDDSRVLLVSLEIGVEAFQEYRCDHPVTLGMDLTSLSKILRCGNNTDTLTLIADNTPDSIILLFEDTKKDRIAEYSLKLMDYDRDMLKISELQYDSTLSLPSSEFSKIVRDLSQLSDSINIMITKETIKFVADGDIGSGSVIIKPFVDMEHPETSIKLEMDQPVDLTFGAKYLLDIIKGSSLSDRVGIRLSSEAPALFQFDLKSGFLQFFLAPKFNDEE
modifications: left off: Gal4 activation domain, end not stated, kept
effect of rad27 deletion on growth sensitivity of the mutant strain (yeast strains): only weak effect

B8: pol30-Rad30E9: PCNA mutant evolved for Rad30, IDCL sequence DNDWDFLKIDEL (protein)
chain: MLEAKFEEASLFKRIIDGFKDCVQLVNFQCKEDGIIAQAVDDSRVLLVSLEIGVEAFQEYRCDHPVTLGMDLTSLSKILRCGNNTDTLTLIADNTPDSIILLFEDTKKDRIAEYSLKLMDNDWDFLKIDELQYDSTLSLPSSEFSKIVRDLSQLSDSINIMITKETIKFVADGDIGSGSVIIKPFVDMEHPETSIKLEMDQPVDLTFGAKYLLDIIKGSSLSDRVGIRLSSEAPALFQFDLKSGFLQFFLAPKFNDEE
modifications: left off: Gal4 activation domain, end not stated, kept
off-rate (kd) of the Rad30 PIP peptide (Rad30 PIP peptide; SPR): 0.00321 s⁻¹ | fold increase in the lifetime of the PCNA-Rad30 complex (Rad30 PIP peptide; SPR, from Rad30 PIP peptide dissociation rate, relative to the WT): ~9 fold | Fold increase in binding affinity for Rad30 PIP peptide relative to WT PCNA (SPR) (Rad30 PIP peptide; footnote d, PCNA immobilized on GLM chip, peptide 5-5,000 nM): 8.5 fold | effect of rad30 deletion on strain growth sensitivity phenotype (yeast strains): suppression
